Legend:
[1] = target: T1, human CD36 (Sino Biological) (human, UniProt P16671 30-439); assay: ELISA, plates coated with human CD36 (Sino Biological), antibody titrated, OD630nm
T1 construct: Bought protein coated on ELISA plates
Source text: Binding was first tested using an ELISA assay in which 96-well ELISA plates were coated with human CD36 (Sino Biological) or mouse CD36 protein.

[2] = target: T2, human CD36 (on HEK 293 or SCC25 cells) (human, UniProt P16671 2-472); assay: FACS, SCC25 cells stably expressing human CD36
T2 construct: Overexpressed transiently or stably on HEK 293 cells, or stably on SCC25 cells; also called huCD36
Procedure: SCC25 cells were treated with 10-fold serial dilution of each antibody (5 dilutions starting at 100 nM). After incubation with the cells, an anti-human fluorescently labelled antibody was added to the cell media, allowed to incubate further, and the unbound antibody was washed off of the cells. Subsequently, the cells were subjected to FACS analysis to determine antibody binding to the cells. The results were fitted to a sigmoidal titration curve. Using a nonlinear regression model, the EC₅₀ values for each antibody were calculated from the GeoMFI and MFI values using the log(agonist) versus response (four parameters) fitting on the data transformed according to X=Log[X] in GraphPad PRISM.

[3] = target: T2, human CD36 (on HEK 293 or SCC25 cells); assay: cell-based or functional assay
[4] = target: T3, nonhuman primate CD36 (on HEK 293 cells) (cynomolgus monkey / rhesus macaque, UniProt P16671 2-472 (human entry)); assay: FACS, HEK 293 cells transiently overexpressing CD36;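 also: antibody binding to transfected cells detected by flow cytometry with a fluorescent anti-human secondary antibody, EC50 from a four-parameter sigmoidal fit of mean fluorescence intensity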
T3 construct: also called non-human primate CD36 (cynomolgus)
Procedure: (§1) After transiently transfecting the HEK 293 cells with a CD36 expression construct, cells were treated with three-fold serial dilution of each candidate antibody (10 dilutions starting at 500 nM). […] After incubation with the cells, an anti-human fluorescently labelled antibody was added to the cell media, allowed to incubate further, and the unbound antibody was washed off of the cells. Subsequently, the cells were subjected to FACS analysis to determine antibody binding to the cells. The results were fitted to a sigmoidal titration curve. Using a nonlinear regression model, the EC₅₀ values for each antibody were calculated from the GeoMFI and MFI values using the log(agonist) versus response (four parameters) fitting on the data transformed according to X=Log[X] in GraphPad PRISM.

[5] = target: T4, purified biotin-tagged human CD36 (human, UniProt P16671 30-439, limits assumed, biotin tag, site not stated); assay: AlphaScreen competition; competitor FA6-152 on acceptor beads
[6] = target: T4, purified biotin-tagged human CD36; assay: AlphaScreen competition; competitor 1G04 on acceptor beads;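 also: streptavidin donor beads excited at 680 nm release singlet oxygen, and the light signal needs a nearby acceptor bead, with 30 min donor-bead incubation at 25 °C in the dark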
Procedure: (§2) This was done using the AlphaScreen® bead-based microplate assay. […] AlphaLISA® Streptavidin Donor Beads were then added and the mix incubated for 30 min at 25° C. in the dark. The donor bead contains a photosensitizer, which upon excitation by light at 680 nm, converts oxygen (O₂) into an excited form, singlet oxygen. Singlet oxygen molecules have a reduced lifetime (4 microseconds half-life) and can diffuse approximately 200 nm in solution before falling back to ground state. In the absence of acceptor beads, the singlet oxygen molecules fall back to ground state without producing any light signal.

[7] = target: T2, human CD36 (on HEK 293 or SCC25 cells); assay: FACS, SCC25 cells stably overexpressing human CD36
Procedure: as §1

[8] = target: T2, human CD36 (on HEK 293 or SCC25 cells); assay: FACS, HEK 293 cells transiently overexpressing CD36;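 also: antibody binding to transfected cells detected by flow cytometry with a fluorescent anti-human secondary antibody, EC50 from a four-parameter sigmoidal fit of mean fluorescence intensity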
Procedure: as §1

[9] = target: T5, mouse CD36 (on HEK 293 cells) (mouse, UniProt Q08857 1-472); assay: as above
T5 construct: also called Murine CD36
Procedure: as §1

[10] = target: T2, human CD36 (on HEK 293 or SCC25 cells); assay: cell-based or functional assay; remark: listed apart in the source
[11] = target: T2, human CD36 (on HEK 293 or SCC25 cells); assay: cell-based or functional assay; remark: listed apart in the source
[12] = target: T6, human CD36 (His-tagged) (human, UniProt P16671 30-439); assay: SPR (Biacore T200), His-captured CD36, bivalent analyte model
T6 construct: not shown: His tag

[13] = target: T4, purified biotin-tagged human CD36; assay: AlphaScreen competition; competitor 11G04 on acceptor beads
Procedure: as §2
For Percent Fatty Acid Uptake Inhibition in this document: test concentration or dose not given here.

T5 sequence (Q08857 whole entry): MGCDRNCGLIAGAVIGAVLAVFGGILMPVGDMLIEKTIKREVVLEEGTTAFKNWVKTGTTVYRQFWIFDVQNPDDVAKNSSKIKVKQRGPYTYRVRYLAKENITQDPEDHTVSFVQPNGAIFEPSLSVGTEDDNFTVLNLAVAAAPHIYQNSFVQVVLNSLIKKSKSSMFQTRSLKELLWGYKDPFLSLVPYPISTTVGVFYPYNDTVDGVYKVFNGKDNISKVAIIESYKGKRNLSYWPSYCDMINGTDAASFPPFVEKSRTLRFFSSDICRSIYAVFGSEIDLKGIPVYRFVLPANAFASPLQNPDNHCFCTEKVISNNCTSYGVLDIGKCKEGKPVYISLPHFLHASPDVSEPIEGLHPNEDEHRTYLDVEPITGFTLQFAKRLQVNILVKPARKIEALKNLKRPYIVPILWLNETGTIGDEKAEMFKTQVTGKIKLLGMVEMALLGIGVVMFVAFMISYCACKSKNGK
T3 sequence (P16671 other isoform, or with tags, fused parts or gaps limits assumed): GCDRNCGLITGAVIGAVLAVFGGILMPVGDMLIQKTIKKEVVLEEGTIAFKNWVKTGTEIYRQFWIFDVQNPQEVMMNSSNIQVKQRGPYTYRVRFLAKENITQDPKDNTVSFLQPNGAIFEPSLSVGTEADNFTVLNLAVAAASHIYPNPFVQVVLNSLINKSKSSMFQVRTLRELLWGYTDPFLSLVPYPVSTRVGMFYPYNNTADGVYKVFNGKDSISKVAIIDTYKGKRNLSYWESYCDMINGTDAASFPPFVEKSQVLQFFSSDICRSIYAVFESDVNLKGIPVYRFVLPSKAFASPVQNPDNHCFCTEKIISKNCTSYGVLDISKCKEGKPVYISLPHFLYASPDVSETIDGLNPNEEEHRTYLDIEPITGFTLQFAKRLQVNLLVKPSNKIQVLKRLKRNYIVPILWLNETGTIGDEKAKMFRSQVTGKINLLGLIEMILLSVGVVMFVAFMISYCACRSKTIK
T6 sequence (P16671 30-439 limits assumed): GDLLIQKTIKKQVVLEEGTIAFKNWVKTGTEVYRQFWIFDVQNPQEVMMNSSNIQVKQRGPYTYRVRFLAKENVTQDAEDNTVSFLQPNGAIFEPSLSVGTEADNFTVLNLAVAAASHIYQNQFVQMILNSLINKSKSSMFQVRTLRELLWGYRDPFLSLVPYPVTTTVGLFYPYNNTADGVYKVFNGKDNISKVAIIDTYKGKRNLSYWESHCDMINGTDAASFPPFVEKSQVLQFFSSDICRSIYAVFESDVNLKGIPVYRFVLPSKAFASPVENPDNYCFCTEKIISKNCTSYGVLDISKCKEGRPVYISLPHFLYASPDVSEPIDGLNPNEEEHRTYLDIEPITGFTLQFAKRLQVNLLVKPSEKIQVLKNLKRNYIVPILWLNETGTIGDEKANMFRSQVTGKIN
T4 sequence (P16671 30-439 limits assumed): as above
T2 sequence (P16671 2-472 limits assumed): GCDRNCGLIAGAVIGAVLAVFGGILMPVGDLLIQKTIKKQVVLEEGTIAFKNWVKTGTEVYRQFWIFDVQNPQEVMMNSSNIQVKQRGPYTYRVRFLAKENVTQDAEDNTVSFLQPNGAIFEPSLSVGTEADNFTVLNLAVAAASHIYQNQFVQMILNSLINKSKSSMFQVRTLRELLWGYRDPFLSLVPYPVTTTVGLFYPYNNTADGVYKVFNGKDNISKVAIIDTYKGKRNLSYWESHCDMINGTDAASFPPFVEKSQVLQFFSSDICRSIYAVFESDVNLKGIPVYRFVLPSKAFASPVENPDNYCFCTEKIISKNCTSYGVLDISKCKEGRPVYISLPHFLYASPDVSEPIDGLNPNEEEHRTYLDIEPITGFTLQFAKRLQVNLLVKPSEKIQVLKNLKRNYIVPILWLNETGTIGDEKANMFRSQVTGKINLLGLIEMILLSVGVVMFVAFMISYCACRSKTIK
T1 sequence (P16671 30-439 limits assumed): as the sequence (P16671 30-439 limits assumed) above

| EC50 (read off the curve) [1] [nM] | EC50 [2] [nM] | IC50 of fatty acid uptake inhibition (BODIPY FL C16, HEK hCD36 cells) [3] [nM] | EC50 [4] [nM] | EC50 [5] [nM] | EC50 [6] [nM] | EC50 [7] [nM] | EC50 [8] [nM] | EC50 [9] [nM] | Percent Fatty Acid Uptake Inhibition [10] [%] | IC50 of oxLDL uptake inhibition (DiI-oxLDL, SCC25 cells) [11] [nM] | Kd [12] [nM] | koff [12] [s⁻¹] | kon [12] [M⁻¹ s⁻¹] | EC50 [13] [nM] | Binder |
| --- | --- | --- | --- | --- | --- | --- | --- | --- | --- | --- | --- | --- | --- | --- | --- |
| ~0.1 | 0.38 |  |  |  |  |  |  |  |  |  |  |  |  |  | 1G05 (antibody, V domains shown, also called LALAPG) VH: QVQLKQSGADLVRPGASVKLSCKASGYTFTDYYINWVKQRPGQGLEWIARIYPGSGNTYYNEKFKGKATLTAEKSSSTAYMQLSSLTSEDSAVYFCARGIGGGFGMDYWGQGTSVTVSS VL: SIVMTQTPKFLLVSAGDRITITCKASQSVSDDVAWYQQKPGQSPKLLIYYASNRYTGVPDRFTGSGYGTDFTFTISTVQAEDLAVYFCQQDYSSPLTFGAGTKLEIK |
|  | 0.47 |  |  |  |  |  |  |  |  |  |  |  |  |  | 1G07 (antibody, V domains shown, also called SPLE) VH: QVQLKQSGADLVRPGASVKLSCKASGYTFTDYYINWVKQRPGQGLEWIARIYPGSGNTYYNEKFKGKATLTAEKSSSTAYMQLSSLTSEDSAVYFCARGIGGGFGMDYWGQGTSVTVSS VL: SIVMTQTPKFLLVSAGDRITITCKASQSVSDDVAWYQQKPGQSPKLLIYYASNRYTGVPDRFTGSGYGTDFTFTISTVQAEDLAVYFCQQDYSSPLTFGAGTKLEIK |
|  |  | 0.1 | 4.85 | 1040 | 1.15 | 0.56 | 0.53 | 1.51 | 35.1 | 0.27 | 0.51 | 0.0002 | 390000 |  | 6G04 (antibody, human IgG1, V domains shown, Chimeric: mouse variable regions on human IgG1 LALA (L234A/L235A); also called 06G04; 006G04) VH: QVQLQQSGAELVMPGASVKMSCKASGYTFTDYWMHWVKQRPGQGLEWIGSIDTSDSYTTYSQKFKGKATLTVDESSSTAYMELARLTSEDSAIYYCVRGEDYEGTWFAYWGQGTLVTVSA VL: ETTVTQSPASLSVATGEKVTIRCITSTDIDDDMNWYQQKPGEPPKLLISEGNTLRPGVPSRFSSSGYGTDFVFTIENTLSEDVADYYCLQSDNMPLTFGAGTKLELK |
|  |  |  | 0.63 | 1.8 | 0.15 |  | 0.91 |  |  |  |  |  |  |  | 27G04 (antibody, human IgG1, V domains shown, Chimeric: mouse variable regions on human IgG1 LALA (L234A/L235A)) VH: EVQLQQSGAELLKPGASVKISCKTTGYTFSNYWIEWVKQRPGHGLEWIGEILPGSGSPKYNEKFKGKATLTADTSSNTAFMQLSSLTSEDSAVYYCAPFILENYFDYWGQGTTLTVSS VL: DIQMTQSHKFMSTSVGDRVSITCKASQDVSTAVAWYQQKPGQSPKLLIYSASYRYTGVPDRFTGSGSGTDFTFTISSVQAEDLAVYYCQQHYSTPRTFGGGTKLEIK |

The next lines start with the binder.

| Binder | EC50 (read off the curve) [1] [nM] | EC50 [2] [nM] | IC50 of fatty acid uptake inhibition (BODIPY FL C16, HEK hCD36 cells) [3] [nM] | EC50 [4] [nM] | EC50 [5] [nM] | EC50 [6] [nM] | EC50 [7] [nM] | EC50 [8] [nM] | EC50 [9] [nM] | Percent Fatty Acid Uptake Inhibition [10] [%] | IC50 of oxLDL uptake inhibition (DiI-oxLDL, SCC25 cells) [11] [nM] | Kd [12] [nM] | koff [12] [s⁻¹] | kon [12] [M⁻¹ s⁻¹] | EC50 [13] [nM] |
| --- | --- | --- | --- | --- | --- | --- | --- | --- | --- | --- | --- | --- | --- | --- | --- |
| 1G03 (antibody, V domains shown) VH: QVQLKQSGADLVRPGASVKLSCKASGYTFTDYYINWVKQRPGQGLEWIARIYPGSGNTYYNEKFKGKATLTAEKSSSTAYMQLSSLTSEDSAVYFCARGIGGGFGMDYWGQGTSVTVSS VL: SIVMTQTPKFLLVSAGDRITITCKASQSVSDDVAWYQQKPGQSPKLLIYYASNRYTGVPDRFTGSGYGTDFTFTISTVQAEDLAVYFCQQDYSSPLTFGAGTKLEIK | ~0.1 | 0.38 |  |  |  |  |  |  |  |  |  |  |  |  |  |
| 15G04 (antibody, human IgG1, V domains shown, Chimeric: mouse variable regions on human IgG1 LALA (L234A/L235A); also called 015G04) VH: QVQLQQSGPELVKPGASVKISCKASGYTFSTSWMNWVKQRPGQGLEWIGRIYPGDGDTNYNGKFKGKATLTADTSSSTAYMQLSSLTSVDSAVYFCAREVYYGGYEDYGMDYWGQGTSVTVSS VL: DVVMTQTPLSLPVSLGDQASISCRSSQSLLHTNVNTYLHWYLQKPGQSPKLLIYKVSNRFSGVPDRFSGSGSGTDFTLKISRVEAEDLGVYFCSQSTHVPYTFGGGTKLEIK |  |  | > 1000 | 2.2 | 5.65 | 0.41 |  |  |  |  |  |  |  |  |  |
| 16G04 (antibody, human IgG1, V domains shown, Chimeric: mouse variable regions on human IgG1 LALA (L234A/L235A); also called 016G04) VH: EVQLQQSGPELVKPGASVKISCKTSGYTFTEYTMHWVKQSHGKSLEWIGGINPYNGGTAYNQKFKNKATLTVDISSNTAFMEFRSLTSEDSAVYYCASDYFYGDANPWFAYWGQGTLVTVSA VL: ETTVTQSPASLSMAIGEKVTIRCITSTDIDDDMNWYQQKPGEPPKLLISEGNTLRPGVPSRFSSSGYGTDFVFTIENMLSEDVADYYCLQSDNLPLTFGAGTKLELK |  |  | 0.15 | 5.4 |  | 9.19 | 0.57 | 1.36 | 18.2 | 45.2 |  |  |  |  | 3.73 |
| 4G04 (antibody, human IgG1, V domains shown, Chimeric: mouse variable regions on human IgG1 LALA (L234A/L235A); also called 04G04; 004G04) VH: QVQLQQPGSELRSPGSSVKLSCKDFDSEVFPIAYMTWVRQKPGHGFEWIGDILPSIGGTIYGEKFEDKATLDADTVSNTAYLELNSLTSEDSAIYYCARDYYGSSYGYFDVWGAGTAVTVSS VL: DIVLTQSQKFMSTSVGDRVSVTCKASQNVGTNVAWYQQKPGQSPKALIYSASYRYSGVPDRFTGSGSGTDFTLTISNVQSEDLAEYFCQQYNSYPYTFGGGTKLEIK |  |  | 483 | 27.7 | 9.89 | 0.11 |  |  |  |  |  |  |  |  |  |
| 29G04 (antibody, human IgG1, V domains shown, Chimeric: mouse variable regions on human IgG1 LALA (L234A/L235A); also called 029G04) VH: QVQLQQSGTELVKPGASVKLSCKASGYTFTSYWMHWVKQRPGQGLEWIGEIDPSDSHTNYNQKFKGKATLTVDKSSSTAYMQLSSLTSEDSAVYYCAPIYYGLDNWGQGTTLTVSS VL: DIVLTQSQKFMSTSVGDRVSVTCKASQNVGTNVAWYQQKPGQSPKALIYSASYRYSGVPDRFTGSGSGTDFTLTISNVQSEDLAEYFCQQYNSYPLTFGAGTKLELK |  |  | 0.08 | 0.32 | 33.8 | 0.37 |  | 0.36 |  |  |  |  |  |  |  |
| 13G04 (antibody, human IgG1, V domains shown, Chimeric: mouse variable regions on human IgG1 LALA (L234A/L235A); also called 013G04) VH: QVQLQQSGAELVRPGASVKLSCKASGYTFTSYWMNWVKQRPGQGLEWIGMIDPSDNETHYNQMFKDKATLTVDKSSSTAYMQLSSLTSEDSAVYYCARSDYGNGYSFYLDVWGAGTTVTVSS VL: DIVLTQSPASLAVSLGQRATISCRASESVDSYGNSFMHWYQQKPGQPPKLLIYRASNLESGIPARFSGSGSRTDFTLTINPVEADDVATYYCQQSNEDPWTFGGGTKLEIK |  |  | 0.2 | 1.06 | 46.8 | 0.17 | 0.26 | 0.31 | 5.93 | 52.8 | 0.26 | 1.5 | 0.0037 | 2.4e+06 |  |

From patent US20250206836A1 (ONA THERAPEUTICS S L, published 2025)
